The assay deals with SARS-CoV-2 6P stabilized S trimer (SARS-CoV-2, Wuhan-Hu-1 reference, UniProt P0DTC2, stabilised). Put plainly: cryo-EM structure.

B1: C051 Fab (Fab, V domains shown)
VH: EVQLVESGGGLIQAGGSLRLSCAASGFGVRNNYMSWVRQAPGKGLEWVSVIYSGGTTYYADSVKGRFTISRDNSKNTVFLQMNSLRAEDTAVYYCAREGDVEGFSDLWSGYSRDRYYFDYWGQGTLVTVSS
VL: QSVLTQPASVSGSPGQSITFSCTGTSSDVGGYNYVSWYQQYPGKAPKLLIYDVTNRPSGVSDRFSGSKSGNTASLTISGLQAEDEADYYCSSFTSSNTRVFGTGTKVTVL
With B1, the binding result was “binds”.

Values taken from paper PMC7987023 (bioRxiv, 2021).
